Results as given in the supplement of paper PMC10065799, “High-throughput profiling of sequence recognition by tyrosine kinases and SH2 domains using bacterial peptide display” (eLife, 2023).

How the values were obtained:
EPHB1 = EPHB1 (UniProt P54762); assay: phosphorylation enrichment, bacterial display (enrichment ratio); higher = better substrate or ligand; peptides without Tyr show the background
Fer (mouse) = assay: as above
AncSZ = assay: as above
Fes = Fes (UniProt P07332); assay: as above
MERTK = MERTK (UniProt Q12866); assay: as above
FGFR3 = FGFR3 (UniProt P22607); assay: as above
Fyn = Fyn (UniProt P06241); assay: as above
c-Abl (mouse) = assay: as above
Hck = Hck (UniProt P08631); assay: as above
Jak2 = Jak2 (UniProt O60674); assay: as above
EPHB2 = EPHB2 (UniProt P29323); assay: as above
FGFR1 = FGFR1 (UniProt P11362); assay: as above
c-Src = assay: as above
Grb2 SH2 = Grb2 SH2 (UniProt P62993); assay: SH2 binding enrichment of the phosphorylated peptide, bacterial display (enrichment ratio); higher = better substrate or ligand; peptides without Tyr show the background
c-Src SH2 = assay: as above
SHP2-C SH2 = assay: as above
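Wherever SH2 binding enrichment of the phosphorylated peptide, bacterial display is given: peptide library displayed on the E. coli surface as eCPX fusions, selected cells deep-sequenced, score is each peptide's frequency after selection divided by its frequency in the input.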
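Wherever phosphorylation enrichment, bacterial display is given: 11-residue human phosphosite peptides and single-mutation variants displayed on the E. coli surface, counted by deep sequencing, each peptide's frequency after selection divided by its frequency in the unselected input library; frequency after pTyr selection over input frequency; kinase dosed for 20-30% of maximal phosphorylation in three min.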

Chain of EPHB2 (P29323 whole entry, looked up): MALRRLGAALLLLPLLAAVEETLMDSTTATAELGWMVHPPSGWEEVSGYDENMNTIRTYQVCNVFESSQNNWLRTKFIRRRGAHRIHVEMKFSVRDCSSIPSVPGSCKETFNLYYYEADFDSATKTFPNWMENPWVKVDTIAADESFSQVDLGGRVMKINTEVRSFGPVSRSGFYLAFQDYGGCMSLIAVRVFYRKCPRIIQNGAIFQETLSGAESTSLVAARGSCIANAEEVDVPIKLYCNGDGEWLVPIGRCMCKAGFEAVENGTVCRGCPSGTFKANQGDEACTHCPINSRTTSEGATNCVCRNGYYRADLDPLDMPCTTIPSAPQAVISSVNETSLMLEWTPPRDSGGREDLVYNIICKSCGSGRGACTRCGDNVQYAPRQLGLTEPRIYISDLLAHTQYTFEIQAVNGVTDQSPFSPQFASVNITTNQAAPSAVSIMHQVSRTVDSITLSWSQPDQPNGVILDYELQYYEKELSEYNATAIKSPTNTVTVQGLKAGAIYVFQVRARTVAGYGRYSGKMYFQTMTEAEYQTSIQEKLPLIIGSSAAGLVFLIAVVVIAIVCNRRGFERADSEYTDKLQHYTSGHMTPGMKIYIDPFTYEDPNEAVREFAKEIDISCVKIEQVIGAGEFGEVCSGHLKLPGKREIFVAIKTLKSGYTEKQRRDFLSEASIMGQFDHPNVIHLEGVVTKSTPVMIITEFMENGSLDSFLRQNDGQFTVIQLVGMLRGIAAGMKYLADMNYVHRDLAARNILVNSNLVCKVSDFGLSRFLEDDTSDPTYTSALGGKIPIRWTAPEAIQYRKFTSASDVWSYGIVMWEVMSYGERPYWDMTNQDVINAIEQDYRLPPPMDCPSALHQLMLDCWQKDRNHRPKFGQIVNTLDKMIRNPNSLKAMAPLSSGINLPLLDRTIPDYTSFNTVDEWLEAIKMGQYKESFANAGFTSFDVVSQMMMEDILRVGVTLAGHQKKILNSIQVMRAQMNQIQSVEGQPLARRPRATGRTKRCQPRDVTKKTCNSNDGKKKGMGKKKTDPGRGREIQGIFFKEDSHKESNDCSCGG
Chain of Hck (P08631 whole entry, looked up): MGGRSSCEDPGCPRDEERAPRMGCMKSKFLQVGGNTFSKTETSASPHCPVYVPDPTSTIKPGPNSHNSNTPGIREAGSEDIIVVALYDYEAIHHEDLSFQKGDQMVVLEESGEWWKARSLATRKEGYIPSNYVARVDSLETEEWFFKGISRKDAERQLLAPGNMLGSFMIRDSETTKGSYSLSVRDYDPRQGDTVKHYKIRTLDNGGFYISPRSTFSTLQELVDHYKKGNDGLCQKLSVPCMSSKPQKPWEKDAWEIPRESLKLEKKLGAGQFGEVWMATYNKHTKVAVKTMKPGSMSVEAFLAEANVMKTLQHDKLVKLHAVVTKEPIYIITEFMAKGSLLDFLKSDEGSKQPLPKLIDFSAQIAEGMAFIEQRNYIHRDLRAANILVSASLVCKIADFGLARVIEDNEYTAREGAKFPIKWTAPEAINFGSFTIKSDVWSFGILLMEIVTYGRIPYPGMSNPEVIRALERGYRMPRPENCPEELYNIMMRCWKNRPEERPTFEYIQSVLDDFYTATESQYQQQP
Chain of MERTK (Q12866 whole entry, looked up): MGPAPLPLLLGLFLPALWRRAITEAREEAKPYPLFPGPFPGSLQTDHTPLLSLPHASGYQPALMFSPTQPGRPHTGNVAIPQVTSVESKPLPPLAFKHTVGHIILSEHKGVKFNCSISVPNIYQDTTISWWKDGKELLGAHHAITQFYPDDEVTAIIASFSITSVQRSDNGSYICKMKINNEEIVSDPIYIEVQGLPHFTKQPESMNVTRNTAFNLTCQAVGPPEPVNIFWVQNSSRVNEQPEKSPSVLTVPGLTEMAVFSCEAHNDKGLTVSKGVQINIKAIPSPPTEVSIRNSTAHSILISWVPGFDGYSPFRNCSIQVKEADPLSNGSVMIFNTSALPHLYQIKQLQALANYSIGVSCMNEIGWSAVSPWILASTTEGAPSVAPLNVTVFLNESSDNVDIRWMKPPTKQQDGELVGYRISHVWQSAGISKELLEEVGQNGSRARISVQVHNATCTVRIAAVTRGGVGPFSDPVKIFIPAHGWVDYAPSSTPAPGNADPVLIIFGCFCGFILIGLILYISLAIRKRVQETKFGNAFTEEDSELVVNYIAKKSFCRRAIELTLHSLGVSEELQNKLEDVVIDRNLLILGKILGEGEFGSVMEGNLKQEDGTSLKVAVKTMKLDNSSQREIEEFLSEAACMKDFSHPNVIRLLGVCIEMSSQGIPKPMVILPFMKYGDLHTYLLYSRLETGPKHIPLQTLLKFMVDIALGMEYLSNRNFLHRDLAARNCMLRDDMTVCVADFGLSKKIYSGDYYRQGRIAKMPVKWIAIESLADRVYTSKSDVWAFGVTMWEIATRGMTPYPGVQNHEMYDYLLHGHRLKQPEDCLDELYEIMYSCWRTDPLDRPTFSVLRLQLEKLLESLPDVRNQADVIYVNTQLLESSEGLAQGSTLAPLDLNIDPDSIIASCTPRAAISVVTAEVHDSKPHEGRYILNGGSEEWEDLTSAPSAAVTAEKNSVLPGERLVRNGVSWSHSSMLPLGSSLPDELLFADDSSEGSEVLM
Chain of Fes (P07332 whole entry, looked up): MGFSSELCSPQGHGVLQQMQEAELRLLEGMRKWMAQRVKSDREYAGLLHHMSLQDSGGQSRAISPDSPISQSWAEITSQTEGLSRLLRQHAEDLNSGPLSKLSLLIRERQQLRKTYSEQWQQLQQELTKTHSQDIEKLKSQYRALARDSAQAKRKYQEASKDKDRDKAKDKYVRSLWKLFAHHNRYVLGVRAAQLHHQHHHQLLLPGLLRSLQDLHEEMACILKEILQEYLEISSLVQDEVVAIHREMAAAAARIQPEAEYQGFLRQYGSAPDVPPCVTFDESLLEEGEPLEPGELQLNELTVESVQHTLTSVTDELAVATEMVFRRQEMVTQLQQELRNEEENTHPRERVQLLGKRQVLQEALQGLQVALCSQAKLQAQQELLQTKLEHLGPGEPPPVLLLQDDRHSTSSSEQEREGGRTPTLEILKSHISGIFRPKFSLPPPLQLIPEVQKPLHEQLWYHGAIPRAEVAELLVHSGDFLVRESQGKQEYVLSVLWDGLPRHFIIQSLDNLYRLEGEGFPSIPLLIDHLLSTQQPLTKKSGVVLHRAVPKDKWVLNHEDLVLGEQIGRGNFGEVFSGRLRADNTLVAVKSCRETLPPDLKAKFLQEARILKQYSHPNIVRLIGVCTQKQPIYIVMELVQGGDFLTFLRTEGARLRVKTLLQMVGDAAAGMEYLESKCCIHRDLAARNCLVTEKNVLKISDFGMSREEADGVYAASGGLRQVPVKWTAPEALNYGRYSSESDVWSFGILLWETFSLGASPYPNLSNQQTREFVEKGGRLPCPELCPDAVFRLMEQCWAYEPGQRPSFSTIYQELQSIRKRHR
Chain of EPHB1 (P54762 whole entry, looked up): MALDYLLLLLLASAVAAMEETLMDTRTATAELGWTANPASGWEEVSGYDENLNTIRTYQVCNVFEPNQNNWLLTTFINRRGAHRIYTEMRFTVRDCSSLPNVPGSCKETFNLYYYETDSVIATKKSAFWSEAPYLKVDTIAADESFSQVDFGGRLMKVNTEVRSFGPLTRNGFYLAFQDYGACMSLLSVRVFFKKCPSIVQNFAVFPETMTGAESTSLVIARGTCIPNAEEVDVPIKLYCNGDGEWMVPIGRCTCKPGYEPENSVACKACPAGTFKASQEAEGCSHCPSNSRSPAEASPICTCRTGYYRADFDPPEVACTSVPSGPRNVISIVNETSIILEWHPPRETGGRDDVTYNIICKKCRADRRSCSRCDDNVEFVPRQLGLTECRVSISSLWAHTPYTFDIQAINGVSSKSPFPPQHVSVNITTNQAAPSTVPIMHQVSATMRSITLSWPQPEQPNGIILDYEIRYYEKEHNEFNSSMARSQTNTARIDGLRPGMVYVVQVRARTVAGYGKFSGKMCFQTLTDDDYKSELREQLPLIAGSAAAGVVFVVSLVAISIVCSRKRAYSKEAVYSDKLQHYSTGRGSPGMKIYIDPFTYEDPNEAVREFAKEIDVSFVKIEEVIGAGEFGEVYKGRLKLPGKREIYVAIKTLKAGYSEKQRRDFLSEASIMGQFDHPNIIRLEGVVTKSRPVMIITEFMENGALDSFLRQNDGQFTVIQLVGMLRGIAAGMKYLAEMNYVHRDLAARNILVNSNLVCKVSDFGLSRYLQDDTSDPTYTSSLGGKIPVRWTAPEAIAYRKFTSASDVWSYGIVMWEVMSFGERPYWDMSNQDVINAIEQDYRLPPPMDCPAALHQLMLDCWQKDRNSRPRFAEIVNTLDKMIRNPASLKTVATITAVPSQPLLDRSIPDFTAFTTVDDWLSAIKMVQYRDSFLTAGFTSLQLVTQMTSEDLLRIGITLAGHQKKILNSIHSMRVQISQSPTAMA
Chain of Fyn (P06241 whole entry, looked up): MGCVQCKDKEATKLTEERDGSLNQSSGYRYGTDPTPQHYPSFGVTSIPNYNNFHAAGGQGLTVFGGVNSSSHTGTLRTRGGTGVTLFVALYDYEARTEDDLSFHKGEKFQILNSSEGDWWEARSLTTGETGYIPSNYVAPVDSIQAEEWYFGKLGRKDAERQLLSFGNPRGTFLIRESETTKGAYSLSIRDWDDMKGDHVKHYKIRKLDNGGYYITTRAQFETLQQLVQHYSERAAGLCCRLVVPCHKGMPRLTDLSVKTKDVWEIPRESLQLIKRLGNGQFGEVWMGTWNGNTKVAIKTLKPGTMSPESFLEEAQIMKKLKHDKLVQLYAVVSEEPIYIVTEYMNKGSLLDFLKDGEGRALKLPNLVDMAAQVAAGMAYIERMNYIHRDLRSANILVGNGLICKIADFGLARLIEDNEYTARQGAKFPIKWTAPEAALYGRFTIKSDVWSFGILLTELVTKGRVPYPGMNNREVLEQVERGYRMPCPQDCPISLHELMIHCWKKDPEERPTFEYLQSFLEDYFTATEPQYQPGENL

| Sequence | SH2 binding enrichment (Grb2 SH2) | SH2 binding enrichment (c-Src SH2) | SH2 binding enrichment (SHP2-C SH2) | phosphorylation enrichment (EPHB1) | phosphorylation enrichment (Fer (mouse)) | phosphorylation enrichment (AncSZ) | phosphorylation enrichment (Fes) | phosphorylation enrichment (MERTK) | phosphorylation enrichment (FGFR3) | phosphorylation enrichment (Fyn) | phosphorylation enrichment (c-Abl (mouse)) | phosphorylation enrichment (Hck) | phosphorylation enrichment (Jak2) | phosphorylation enrichment (EPHB2) | phosphorylation enrichment (FGFR1) | phosphorylation enrichment (c-Src) |
| --- | --- | --- | --- | --- | --- | --- | --- | --- | --- | --- | --- | --- | --- | --- | --- | --- |
| VNNAVYGIDAM [EIF3J_Y143] | 0.771 | 0.507 | 0.763 | 0.417 | 0.486 | 0.86 | 0.88 | 0.426 | 0.502 | 1.09 | 0.509 | 0.829 | 0.764 | 0.437 | 0.506 | 1 |
| DSNPIYSQIWS [FCRL3_Y662] | 1.1 | 0.851 | 0.89 | 20.2 | 19.4 | 1.88 | 14.4 | 11.8 | 5.05 | 12.1 | 14.1 | 12 | 1.18 | 21.2 | 6.65 | 8.52 |
| DPLLTYQFPPK [LMNA_Y481_R482Q] | 1.04 | 0.546 | 0.657 | 0.597 | 0.498 | 1.25 | 0.773 | 0.796 | 1.17 | 1.24 | 0.549 | 0.986 | 0.566 | 1.27 | 1.69 | 1.54 |
| YDGKDYIALKE [HLA-A_Y147_N151K] | 0.891 | 0.495 | 0.648 | 0.669 | 0.49 | 1.12 | 0.913 | 0.439 | 0.739 | 0.493 | 0.72 | 0.49 | 1.03 | 0.648 | 0.702 | 0.377 |
| ADLAKYICENQ [ALB_Y287] | 0.868 | 0.607 | 0.754 | 0.672 | 0.459 | 0.979 | 1.13 | 0.386 | 0.788 | 0.461 | 0.83 | 0.627 | 1.09 | 0.63 | 0.485 | 0.505 |

Now from value to sequence, other results behind:

| SH2 binding enrichment (Grb2 SH2) | SH2 binding enrichment (c-Src SH2) | SH2 binding enrichment (SHP2-C SH2) | Sequence | phosphorylation enrichment (EPHB1) | phosphorylation enrichment (Fer (mouse)) | phosphorylation enrichment (AncSZ) | phosphorylation enrichment (Fes) | phosphorylation enrichment (MERTK) | phosphorylation enrichment (FGFR3) | phosphorylation enrichment (Fyn) | phosphorylation enrichment (c-Abl (mouse)) | phosphorylation enrichment (Hck) | phosphorylation enrichment (Jak2) | phosphorylation enrichment (EPHB2) | phosphorylation enrichment (FGFR1) | phosphorylation enrichment (c-Src) |
| --- | --- | --- | --- | --- | --- | --- | --- | --- | --- | --- | --- | --- | --- | --- | --- | --- |
| 1.07 | 0.551 | 0.632 | REVPVYISEDS [SYNM_Y460_G462S] | 1.3 | 1.2 | 2.34 | 2.71 | 1.53 | 1.57 | 0.89 | 2.66 | 1.09 | 3.51 | 1.07 | 1.16 | 1.56 |
| 1.1 | 2.01 | 3.8 | DFLSSYSAVNQ [OAT_Y85] | 0.658 | 1.17 | 1.04 | 0.947 | 0.558 | 0.698 | 0.427 | 0.703 | 0.531 | 0.997 | 0.493 | 0.433 | 0.61 |
| 0.732 | 0.617 | 0.725 | DALDNYVVRGV [PCCA_Y473_I475V] | 0.499 | 0.387 | 0.751 | 0.823 | 0.37 | 0.466 | 0.507 | 0.674 | 0.394 | 0.793 | 0.536 | 0.458 | 0.436 |
| 0.716 | 1.56 | 0.73 | GTTIHYNYMCN [TP53_Y234_C229G] | 0.834 | 0.656 | 1.12 | 1.37 | 0.585 | 0.973 | 0.614 | 0.814 | 0.673 | 1.22 | 0.704 | 0.619 | 0.529 |
| 0.812 | 1.13 | 0.873 | ISDNAYQYMLT [MYH7_Y162] | 0.659 | 9.28 | 1.51 | 1.23 | 2.15 | 2.15 | 0.553 | 0.704 | 0.577 | 1.17 | 0.496 | 3.44 | 0.975 |
| 0.974 | 1.43 | 0.803 | LRYDSYWSYCN [SLC20A2_Y433_S434W] | 7.63 | 1.51 | 2.25 | 1.53 | 5.37 | 3.72 | 5.26 | 1.68 | 4.95 | 2.4 | 9.36 | 3.88 | 4.87 |
| 0.962 | 0.533 | 0.83 | TTKVSYRASQP [MKI67_Y1737] | 0.3 | 0.432 | 0.602 | 0.489 | 0.352 | 0.334 | 0.311 | 0.638 | 0.326 | 0.475 | 0.337 | 0.355 | 0.343 |
